In paper PMC6218797, “A Novel Thermostable GH3 β-Glucosidase from Talaromyce leycettanus with Broad Substrate Specificity and Significant Soybean Isoflavone Glycosides-Hydrolyzing Capability” (BioMed Research International, 2018):

T1: Bgl3B (Rasamsonia emersonii, UniProt A0A343J2C3)
T1 construct: pPIC9, secreted from Pichia pastoris GS115; N-glycosylated, about 100 kDa on SDS-PAGE
T1 sequence (A0A343J2C3 1-841): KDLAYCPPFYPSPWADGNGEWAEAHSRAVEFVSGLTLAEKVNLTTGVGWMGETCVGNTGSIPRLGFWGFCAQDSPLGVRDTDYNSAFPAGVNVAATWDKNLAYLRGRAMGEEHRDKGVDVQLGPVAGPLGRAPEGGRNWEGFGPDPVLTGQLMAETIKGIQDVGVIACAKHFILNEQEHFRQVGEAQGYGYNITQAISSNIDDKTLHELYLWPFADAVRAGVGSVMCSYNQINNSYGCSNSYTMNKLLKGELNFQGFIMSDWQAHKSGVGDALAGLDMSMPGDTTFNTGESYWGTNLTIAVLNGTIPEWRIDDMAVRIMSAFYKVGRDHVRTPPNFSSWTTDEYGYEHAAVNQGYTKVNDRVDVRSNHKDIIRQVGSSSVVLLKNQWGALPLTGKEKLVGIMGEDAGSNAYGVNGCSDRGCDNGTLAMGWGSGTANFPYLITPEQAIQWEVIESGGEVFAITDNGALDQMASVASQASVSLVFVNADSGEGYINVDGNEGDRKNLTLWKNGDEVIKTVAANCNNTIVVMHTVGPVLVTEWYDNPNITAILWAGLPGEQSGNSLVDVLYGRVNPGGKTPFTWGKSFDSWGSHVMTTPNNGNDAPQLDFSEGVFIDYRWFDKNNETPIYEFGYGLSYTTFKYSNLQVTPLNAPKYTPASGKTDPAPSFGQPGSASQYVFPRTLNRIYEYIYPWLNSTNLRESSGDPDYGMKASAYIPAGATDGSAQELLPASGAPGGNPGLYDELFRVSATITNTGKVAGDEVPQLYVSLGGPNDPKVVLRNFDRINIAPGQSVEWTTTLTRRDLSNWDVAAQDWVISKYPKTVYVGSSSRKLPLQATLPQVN

B1: Bgl3B (Rasamsonia emersonii) (protein)
chain: KDLAYCPPFYPSPWADGNGEWAEAHSRAVEFVSGLTLAEKVNLTTGVGWMGETCVGNTGSIPRLGFWGFCAQDSPLGVRDTDYNSAFPAGVNVAATWDKNLAYLRGRAMGEEHRDKGVDVQLGPVAGPLGRAPEGGRNWEGFGPDPVLTGQLMAETIKGIQDVGVIACAKHFILNEQEHFRQVGEAQGYGYNITQAISSNIDDKTLHELYLWPFADAVRAGVGSVMCSYNQINNSYGCSNSYTMNKLLKGELNFQGFIMSDWQAHKSGVGDALAGLDMSMPGDTTFNTGESYWGTNLTIAVLNGTIPEWRIDDMAVRIMSAFYKVGRDHVRTPPNFSSWTTDEYGYEHAAVNQGYTKVNDRVDVRSNHKDIIRQVGSSSVVLLKNQWGALPLTGKEKLVGIMGEDAGSNAYGVNGCSDRGCDNGTLAMGWGSGTANFPYLITPEQAIQWEVIESGGEVFAITDNGALDQMASVASQASVSLVFVNADSGEGYINVDGNEGDRKNLTLWKNGDEVIKTVAANCNNTIVVMHTVGPVLVTEWYDNPNITAILWAGLPGEQSGNSLVDVLYGRVNPGGKTPFTWGKSFDSWGSHVMTTPNNGNDAPQLDFSEGVFIDYRWFDKNNETPIYEFGYGLSYTTFKYSNLQVTPLNAPKYTPASGKTDPAPSFGQPGSASQYVFPRTLNRIYEYIYPWLNSTNLRESSGDPDYGMKASAYIPAGATDGSAQELLPASGAPGGNPGLYDELFRVSATITNTGKVAGDEVPQLYVSLGGPNDPKVVLRNFDRINIAPGQSVEWTTTLTRRDLSNWDVAAQDWVISKYPKTVYVGSSSRKLPLQATLPQVN

Key:
Bgl3B = biological target: T1, Bgl3B; test: pNP release at […] nm, Dixon plot; type: biochemical; details: substrate pNPG 3 or 4 mM; pH 4.5, 65°C, citric acid-Na2HPO4; inhibition mode not stated
purified protein = substrate: O=[N+]([O-])c1ccc(O[C@@H]2O[C@H](CO)[C@@H](O)[C@H](O)[C@H]2O)cc1; test: purified protein; details: pH 4.5, 65°C, 5 min, 0.2-1.5 mM substrate

| Molecule | Ki (Bgl3B) [mM] | Km (purified protein) [µM] | kcat (purified protein) [s⁻¹] |
| --- | --- | --- | --- |
| OC[C@H]1OC(O)[C@H](O)[C@@H](O)[C@@H]1O (stereo partly drawn) [glucose] | 7.1 | – | – |
| B1 | – | 1030 | 714 |
